The target of the assay is T1, MBP-Ync13-6xHis (Schizosaccharomyces pombe, UniProt O13683 1-1237).
T1 construct: Ync13, Munc13/UNC-13 family protein of Schizosaccharomyces pombe; FL cDNA in pET21a-MBP; MBP-TEV-GGSGGS precedes Ync13; also called MBP-Ync13-6His; not shown: MBP, N-terminal, kept; His6, C-terminal, kept
T1 sequence (looked up): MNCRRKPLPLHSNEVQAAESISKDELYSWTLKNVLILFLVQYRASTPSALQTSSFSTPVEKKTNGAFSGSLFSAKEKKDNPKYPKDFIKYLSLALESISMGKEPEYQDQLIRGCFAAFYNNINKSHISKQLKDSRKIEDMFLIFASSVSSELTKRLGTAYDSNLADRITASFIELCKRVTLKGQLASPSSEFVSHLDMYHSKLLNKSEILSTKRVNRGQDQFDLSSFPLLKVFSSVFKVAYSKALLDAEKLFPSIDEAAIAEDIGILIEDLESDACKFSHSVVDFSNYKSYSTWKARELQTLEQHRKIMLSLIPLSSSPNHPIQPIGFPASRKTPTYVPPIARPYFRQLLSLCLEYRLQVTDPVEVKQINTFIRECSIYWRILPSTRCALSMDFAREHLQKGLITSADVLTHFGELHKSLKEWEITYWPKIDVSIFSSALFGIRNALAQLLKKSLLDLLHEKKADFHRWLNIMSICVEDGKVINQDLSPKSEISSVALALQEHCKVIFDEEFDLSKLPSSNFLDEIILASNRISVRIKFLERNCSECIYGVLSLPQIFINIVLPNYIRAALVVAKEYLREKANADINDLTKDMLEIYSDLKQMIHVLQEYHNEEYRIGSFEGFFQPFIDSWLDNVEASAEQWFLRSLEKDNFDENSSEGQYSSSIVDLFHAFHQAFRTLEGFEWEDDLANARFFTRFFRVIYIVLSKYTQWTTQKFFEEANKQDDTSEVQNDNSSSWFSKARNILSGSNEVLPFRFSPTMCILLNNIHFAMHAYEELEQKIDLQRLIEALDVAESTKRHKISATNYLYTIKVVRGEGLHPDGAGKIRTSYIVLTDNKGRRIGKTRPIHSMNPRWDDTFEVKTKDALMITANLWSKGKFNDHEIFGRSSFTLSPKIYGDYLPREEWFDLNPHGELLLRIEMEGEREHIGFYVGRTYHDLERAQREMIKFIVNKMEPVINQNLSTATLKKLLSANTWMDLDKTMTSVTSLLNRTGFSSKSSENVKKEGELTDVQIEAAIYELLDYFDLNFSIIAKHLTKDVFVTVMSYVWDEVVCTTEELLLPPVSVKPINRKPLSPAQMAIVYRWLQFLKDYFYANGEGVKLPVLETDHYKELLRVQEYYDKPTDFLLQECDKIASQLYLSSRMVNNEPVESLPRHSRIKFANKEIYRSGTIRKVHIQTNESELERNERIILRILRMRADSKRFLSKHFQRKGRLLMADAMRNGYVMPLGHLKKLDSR
Briefly: supernatant depletion assay; Rga7-6xHis at 4 µM titrated with MBP-Ync13-6xHis immobilized on Cobalt beads; beads pelleted at 16,000g, supernatant on SDS-PAGE, Coomassie, bound fraction fitted. The note with it: both partners purified.

Results on one molecule are retold here after publication PMC12574955, “The Ync13–Rga7–Rng10 complex selectively coordinates secretory vesicle trafficking and secondary septum formation during cytokinesis” (PLOS Biology, 2025).

As a reminder, the Kd is the constant that tells how readily two partners part at equilibrium. Lower therefore signals tighter binding.

B1: Rga7-6xHis (natural protein, Schizosaccharomyces pombe, UniProt O94466 1-695, looked up)
chain: MLSAPSSSTTPASPPTSPPNTTSSDDFAVLKEPKVEAILNSELGLAILNDRIKDYLLTCKELAGFFKKRSILEEESGKNLQKLAKSYLETFQSKHHSPQSFSASVITSMEIHEQLANHSLTLQKTLSAFSDQVIEFHKNAERKRKSIKEYAKKQENAYLEAVMQMDKSKSRFKGAETEYNRALDNKNTGDSQKKVGFFKPKSNAQLTKLEDEARLKAENAESDMHSKIENAQNVQKQLLCIHRPNYIKQFFSLQREIESSLIANYLRYTKLCESNTLLNGLTIRPQKPTPTNCGLQHALDNINANTDFVQYVLHASIKHEDNKNPTDASKTKIIQPPSSYGTGSSAGKTNPPVNPTIKVTAAIPSPLQNTNPAPSTFPNPSVASPAFPNSSTSNPSTAPASASPLASTLKPSTANDTNGSSSSSSSNPRTSSPLASNAENKPPVAQQSPPVLLPTLPPIQTTTIQTSREVAPPPSSINSNRAASPFRPTSVSPQPSSPTKSLLFGARLDAIILREHSNIPNIVMQCTSQVENFGLNLQGIYRVPSSSARVNMLRSQFENNPLLQLHTPEDYENDVHAVADLLKIFFRELREPLIPDNHQRDFIDAGNVEDESRRRDAVHRAINDLPDANYSTIRHLTIHLAKIKENSDVNKMSTNNLAIIWGPTIIKQATIPEISSFSRTIEILIDYCFTIFDYD
notes: Rga7, F-BAR protein and Rho2 GAP of Schizosaccharomyces pombe; FL Rga7 in pET21a; also called Rga7-6His; not shown: His6, C-terminal, kept
As for B1, the Kd was found to be 10 µM.
